According to US20190322758A1 (IMMUNOPHARMACEUTIC INSTITUTE OF HEFEI RUIDA, published 2019):

Target: T1, recombinant LunX protein (antigenic protein fragment of SEQ ID NO: 9 with C-terminal 6His-Tag) (human, UniProt Q9NP55 103-256)
T1 construct: Expressed in E. coli Rosetta (DE3) from pET-22b(+); also called LunX prokaryotic recombinant fusion protein; human LunX protein
T1 sequence: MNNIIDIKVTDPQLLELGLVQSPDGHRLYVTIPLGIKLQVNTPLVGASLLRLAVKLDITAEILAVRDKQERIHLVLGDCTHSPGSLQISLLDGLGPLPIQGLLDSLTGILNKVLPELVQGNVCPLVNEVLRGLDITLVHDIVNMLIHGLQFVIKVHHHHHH
Assay: hybridoma screening, ELISA (and FACS)

Row | Binder | binding result
1 | anti-LunX murine monoclonal antibody PrAb2 (hybridoma Ab2) (antibody, V domains shown, Mouse monoclonal antibody from hybridoma Ab2; heavy chain about 45 kDa, light chain about 25 kDa) VH: QVQLQQSGPELVKPGASVKISCKTSGYAFSRSWMSWVKQRPGQGLEWIGRIYPGDGDTKYSGKFEGKATLTADKSSSTAYMQLSSLTSVDSAVYFCARSGGIQGYGMDYWGQGTSVTVSS VL: DIVVTQSPAALAVSLGQRATISCRASKSVSTSGYTYMHWYQQKPGQPPKLLIYLASKLESGVPARFSGSGSGTDFTLNIHPVEEEDAATYYCQHSRDLTFGSGTKLEIKR | binds
2 | anti-LunX murine monoclonal antibody PrAb1 (hybridoma Ab1) (antibody, V domains shown, Mouse monoclonal antibody from hybridoma Ab1; heavy chain about 45 kDa, light chain about 25 kDa) VH: QVQLQQSGPELVKPGASVKISCKTSGYAFSRSWMSWVKQRPGQGLEWIGRIYPGDGDTNYNGKFKGKATLTADKSSSTAYMQLSSLTSVDSAVYFCARSGGIQGYGMDYWGQGTSVTVSS VL: DIVLTQSPASLAVSLGQRATISCRASKSVSTAGYSYMHWYQQKPGQTPKLLIYLASKLESGVPARFSGSGSGTDFTLNIHPVEEEDAATYYCQHSRELTFGSGTKLEIKR | binds
